The supplement of paper PMC9112550, “Optimization of the antimicrobial peptide Bac7 by deep mutational scanning” (BMC Biology, 2022)

Each sequence was assayed on Escherichia coli TOP10 (assay: shrunken log2 fold change of peptide-encoding DNA abundance (4.5 h post-induction vs induction); higher = less antimicrobial activity (less host growth inhibition)). Settings: time post-induction: 4.5 h; library: site-saturation at positions 5, 18, 19, 20.
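Further: peptides expressed intracellularly from a pBAD plasmid library in pooled LB shake-flask culture, induced with 0.3% L-arabinose, DNA abundance read by NGS, three biological replicates, DESeq2 with apeglm shrinkage.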

Sequence	shrunken log2 fold change
RRIRYRPPRLPRPRPRPPDTPRP	-0.425
RRIRPRPPRLPRPRPRPQQEPRP	0.0468
RRIRCRPPRLPRPRPRPTLAPRP	0.645
RRIRCRPPRLPRPRPRPKTWPRP	0.0688
RRIRSRPPRLPRPRPRPLGKPRP	2.2
RRIRHRPPRLPRPRPRPSSHPRP	-1.3
RRIRQRPPRLPRPRPRPHFLPRP	-0.218
RRIRWRPPRLPRPRPRPLQCPRP	0.101
RRIRRRPPRLPRPRPRPEGKPRP	0.0207
RRIRARPPRLPRPRPRPEWQPRP	0.105
RRIRWRPPRLPRPRPRPGEPPRP	0.271
RRIRSRPPRLPRPRPRPGTFPRP	0.0493
RRIRQRPPRLPRPRPRPMIEPRP	-0.118
RRIRHRPPRLPRPRPRPMRVPRP	-0.0146
RRIRCRPPRLPRPRPRPTQLPRP	0.338
RRIRMRPPRLPRPRPRPKYEPRP	0.741
RRIRYRPPRLPRPRPRPGISPRP	-0.0863
RRIRDRPPRLPRPRPRPPNAPRP	0.617
RRIRPRPPRLPRPRPRPGMNPRP	-0.0398
RRIRHRPPRLPRPRPRPITCPRP	-0.0107
RRIRYRPPRLPRPRPRPDGQPRP	0.0173
RRIRIRPPRLPRPRPRPSFEPRP	-0.507
RRIRPRPPRLPRPRPRPSWSPRP	-0.0705
RRIRPRPPRLPRPRPRPQSDPRP	0.0199
RRIRWRPPRLPRPRPRPICSPRP	-0.199

Sequence	shrunken log2 fold change
RRIRGRPPRLPRPRPRPMINPRP	0.574
RRIRYRPPRLPRPRPRPNHAPRP	-0.142
RRIRERPPRLPRPRPRPGPCPRP	0.183
RRIRWRPPRLPRPRPRPKAHPRP	0.197
RRIRVRPPRLPRPRPRPPMWPRP	0.303
RRIRKRPPRLPRPRPRPHGRPRP	0.239
RRIRPRPPRLPRPRPRPYYEPRP	-0.321
RRIRLRPPRLPRPRPRPDNMPRP	-0.519
RRIRRRPPRLPRPRPRPQKCPRP	-0.288
RRIRPRPPRLPRPRPRPGMQPRP	0.515
RRIRARPPRLPRPRPRPSSTPRP	-0.0285
RRIRMRPPRLPRPRPRPQFFPRP	-0.207
RRIRRRPPRLPRPRPRPELKPRP	0.254
RRIRGRPPRLPRPRPRPCRIPRP	-0.0785
RRIRNRPPRLPRPRPRPPTVPRP	0.175
RRIRVRPPRLPRPRPRPRSFPRP	0.029
RRIRPRPPRLPRPRPRPLQMPRP	0.205
RRIRVRPPRLPRPRPRPATSPRP	-0.0495
RRIRYRPPRLPRPRPRPGQEPRP	-0.0317
RRIRGRPPRLPRPRPRPHCWPRP	0.69
RRIRSRPPRLPRPRPRPQLEPRP	0.455
RRIRWRPPRLPRPRPRPIGRPRP	-0.0158
RRIRFRPPRLPRPRPRPCIPPRP	0.0633
RRIRQRPPRLPRPRPRPVMRPRP	0.444
RRIRWRPPRLPRPRPRPFTIPRP	-0.212

Sequence	shrunken log2 fold change
RRIRCRPPRLPRPRPRPCKVPRP	-0.147
RRIRWRPPRLPRPRPRPGMEPRP	0.302
RRIRIRPPRLPRPRPRPGHQPRP	-0.00431
RRIRIRPPRLPRPRPRPEVTPRP	-0.0113
RRIRHRPPRLPRPRPRPQCLPRP	-0.0192
RRIRTRPPRLPRPRPRPKTYPRP	-0.566
RRIRIRPPRLPRPRPRPAIGPRP	-0.207
RRIRFRPPRLPRPRPRPIASPRP	-0.015
RRIRNRPPRLPRPRPRPAPFPRP	-0.299
RRIRNRPPRLPRPRPRPYYLPRP	-0.673
RRIRCRPPRLPRPRPRPPSDPRP	0.213
RRIRGRPPRLPRPRPRPPSMPRP	0.593
RRIRQRPPRLPRPRPRPTKWPRP	0.25
RRIRVRPPRLPRPRPRPFYWPRP	-0.103
RRIRWRPPRLPRPRPRPLENPRP	0.0135
RRIRIRPPRLPRPRPRPYDLPRP	-0.427
RRIRNRPPRLPRPRPRPEIDPRP	0.166
RRIRYRPPRLPRPRPRPWWFPRP	-0.195
RRIRVRPPRLPRPRPRPEWWPRP	0.191
RRIRERPPRLPRPRPRPNHCPRP	-0.0763
RRIRFRPPRLPRPRPRPLADPRP	-0.0773
RRIRGRPPRLPRPRPRPLGIPRP	0.178
RRIRPRPPRLPRPRPRPDNLPRP	-0.35
RRIRGRPPRLPRPRPRPRHVPRP	0.218
RRIRMRPPRLPRPRPRPCWEPRP	-0.0572

Sequence	shrunken log2 fold change
RRIRGRPPRLPRPRPRPFPVPRP	0.291
RRIRTRPPRLPRPRPRPPCQPRP	-0.215
RRIRPRPPRLPRPRPRPVGCPRP	1.56
RRIRWRPPRLPRPRPRPHISPRP	0.00485
RRIRYRPPRLPRPRPRPKHGPRP	-0.413
RRIRTRPPRLPRPRPRPQQNPRP	-0.0459
RRIRERPPRLPRPRPRPREAPRP	0.419
RRIRDRPPRLPRPRPRPHQDPRP	0.00101
RRIRTRPPRLPRPRPRPFFHPRP	-0.158
RRIRCRPPRLPRPRPRPAHMPRP	-0.249
RRIRRRPPRLPRPRPRPYMVPRP	-0.361
RRIRTRPPRLPRPRPRPFQVPRP	-0.0305
RRIRTRPPRLPRPRPRPEDWPRP	0.386
RRIRYRPPRLPRPRPRPYNMPRP	-1.09
RRIRLRPPRLPRPRPRPCKWPRP	0.117
RRIRARPPRLPRPRPRPLLQPRP	0.171
RRIRPRPPRLPRPRPRPHFHPRP	-0.191
RRIRSRPPRLPRPRPRPSENPRP	-0.113
RRIRYRPPRLPRPRPRPMTEPRP	-0.0202
RRIRKRPPRLPRPRPRPVCNPRP	-0.148
RRIRNRPPRLPRPRPRPMMAPRP	-0.106
RRIRPRPPRLPRPRPRPPRYPRP	0.237
RRIRFRPPRLPRPRPRPRHTPRP	-0.00169
RRIRFRPPRLPRPRPRPMIDPRP	-0.209
RRIRLRPPRLPRPRPRPIYMPRP	-0.199

Sequence	shrunken log2 fold change
RRIRSRPPRLPRPRPRPSRAPRP	0.281
RRIRNRPPRLPRPRPRPVKFPRP	-0.0271
RRIRYRPPRLPRPRPRPDRYPRP	-0.0871
RRIRGRPPRLPRPRPRPNDNPRP	0.19
RRIRSRPPRLPRPRPRPICRPRP	-0.0192
RRIRTRPPRLPRPRPRPHAHPRP	-0.117
RRIRLRPPRLPRPRPRPWPPPRP	0.668
RRIRMRPPRLPRPRPRPHRYPRP	-0.144
RRIRQRPPRLPRPRPRPYAIPRP	-0.436
RRIRGRPPRLPRPRPRPNSQPRP	0.271
RRIRLRPPRLPRPRPRPNHCPRP	-0.132
RRIRLRPPRLPRPRPRPSYFPRP	-0.452
RRIRSRPPRLPRPRPRPGNEPRP	-0.183
RRIRIRPPRLPRPRPRPYTQPRP	-1.02
RRIRFRPPRLPRPRPRPTWPPRP	0.422
RRIRFRPPRLPRPRPRPCGYPRP	-0.0542
RRIRARPPRLPRPRPRPIWYPRP	-0.147
RRIRHRPPRLPRPRPRPVMLPRP	-0.196
RRIRYRPPRLPRPRPRPMAKPRP	-0.0343
RRIRPRPPRLPRPRPRPNVYPRP	-0.177
RRIRIRPPRLPRPRPRPPDGPRP	1.84
RRIRPRPPRLPRPRPRPCYCPRP	-0.722
RRIRHRPPRLPRPRPRPAFWPRP	0.741
RRIRSRPPRLPRPRPRPEELPRP	0.176
RRIRNRPPRLPRPRPRPMSFPRP	-0.0524
